Experimental data from US20240376185A1 (SMIVET B V, published 2024).
Read-outs that look alike come from different tables or passages of the source.

Columns and labels:
mouse albumin [1] = biological target: T1, mouse albumin (mouse, UniProt P07724 25-608); assay: ELISA on coated albumin
horse albumin [2] = biological target: T2, horse albumin (horse, UniProt P35747 25-607); assay: ELISA on coated albumin
T2 construct: also called Equine albumin

sheep albumin [3] = biological target: T3, sheep albumin (sheep, UniProt P14639 25-607); assay: ELISA on coated albumin
human albumin [4] = biological target: T4, human albumin (human, UniProt P02768 25-609); assay: ELISA on coated albumin
chicken ovalbumin [5] = biological target: T5, chicken ovalbumin (chicken, UniProt P01012 2-386); assay: ELISA on coated albumin
T5 construct: also called Chicken Alb
T5 sequence (looked up): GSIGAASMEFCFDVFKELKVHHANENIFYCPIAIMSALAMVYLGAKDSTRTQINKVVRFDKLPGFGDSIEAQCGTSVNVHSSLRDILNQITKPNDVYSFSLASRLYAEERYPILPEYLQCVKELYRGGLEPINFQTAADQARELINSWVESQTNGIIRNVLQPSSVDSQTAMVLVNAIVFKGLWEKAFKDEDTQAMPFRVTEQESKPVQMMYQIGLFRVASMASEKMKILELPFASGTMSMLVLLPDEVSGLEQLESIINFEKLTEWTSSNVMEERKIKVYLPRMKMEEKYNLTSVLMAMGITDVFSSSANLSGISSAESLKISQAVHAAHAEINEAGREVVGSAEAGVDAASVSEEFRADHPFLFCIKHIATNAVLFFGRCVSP

swine albumin [6] = biological target: T6, swine albumin (swine, UniProt P08835 25-607); assay: ELISA on coated albumin
T6 construct: also called Porcine albumin

bovine albumin [7] = biological target: T7, bovine albumin (bovine, UniProt P02769 25-607); assay: ELISA on coated albumin
dog albumin [8] = biological target: T8, dog albumin (dog, UniProt P49822 25-608); assay: ELISA on coated albumin
T8 construct: also called Canine albumin

cat albumin [9] = biological target: T9, cat albumin (cat, UniProt P49064 25-608); assay: ELISA on cat albumin captured from serum
T9 construct: also called Feline albumin

mouse albumin [10] = biological target: T1, mouse albumin; assay: ELISA; A450 below 0.2 at highest SDA concentration
horse albumin [11] = biological target: T2, horse albumin; assay: ELISA; A450 below 0.2 at highest SDA concentration
sheep albumin [12] = biological target: T3, sheep albumin; assay: ELISA; A450 below 0.2 at highest SDA concentration
human albumin [13] = biological target: T4, human albumin; assay: ELISA; A450 below 0.2 at highest SDA concentration
chicken ovalbumin [14] = biological target: T5, chicken ovalbumin; assay: ELISA; A450 below 0.2 at highest SDA concentration
swine albumin [15] = biological target: T6, swine albumin; assay: ELISA; A450 below 0.2 at highest SDA concentration
bovine albumin [16] = biological target: T7, bovine albumin; assay: ELISA; A450 below 0.2 at highest SDA concentration
dog albumin [17] = biological target: T8, dog albumin; assay: ELISA; A450 below 0.2 at highest SDA concentration
cat albumin [18] = biological target: T9, cat albumin; assay: ELISA; A450 below 0.2 at highest SDA concentration
[19] = biological target: T10, tetanus neurotoxin (TeNT), authentic tetanus holotoxin (Clostridium tetani, UniProt P04958 2-1315); assay: ELISA: directly coated TeNT, anti-his6 PO
[20] = biological target: T10, tetanus neurotoxin (TeNT), authentic …; assay: ELISA: directly coated TeNT, anti-his6 PO; remark: listed apart in the source
[21] = biological target: T10, tetanus neurotoxin (TeNT), authentic …; assay: ELISA: directly coated TeNT, goat anti-llama Ig PO
[22] = biological target: horse albumin (horse Alb) (horse, UniProt P35747 25-607); assay: BLI ([…] (0.11 nm), […] (0.01 nm)
[23] = biological target: T10, tetanus neurotoxin (TeNT), authentic …; assay: bridging ELISA: coated TeNT, SDA, biotinylated TeNT, StrepPO (bivalent binding)
[24] = biological target: T10, tetanus neurotoxin (TeNT), authentic …; assay: as above; remark: listed apart in the source
[25] = biological target: T10, tetanus neurotoxin (TeNT), authentic …; assay: ELISA: directly coated TeNT, goat anti-llama Ig PO; remark: listed apart in the source
[26] = biological target: T10, tetanus neurotoxin (TeNT), authentic …; assay: BLI (Octet Red96): biotinylated SDA on SA sensor, TeNT as analyte
[27] = biological target: T10, tetanus neurotoxin (TeNT), authentic …; assay: GT1b-TeNT inhibition ELISA
[28] = biological target: T10, tetanus neurotoxin (TeNT), authentic …; assay: GT1b-TeNT inhibition ELISA; remark: listed apart in the source
human serum albumin [29] = biological target: T11, human serum albumin (human, UniProt P02768 25-609); assay: ELISA, coated albumin
T11 construct: mature; also called human Alb

chicken ovalbumin [30] = biological target: T12, chicken ovalbumin (chicken, UniProt P01012 2-386); assay: ELISA, coated albumin
T12 construct: mature; also called chicken Alb
T12 sequence (looked up): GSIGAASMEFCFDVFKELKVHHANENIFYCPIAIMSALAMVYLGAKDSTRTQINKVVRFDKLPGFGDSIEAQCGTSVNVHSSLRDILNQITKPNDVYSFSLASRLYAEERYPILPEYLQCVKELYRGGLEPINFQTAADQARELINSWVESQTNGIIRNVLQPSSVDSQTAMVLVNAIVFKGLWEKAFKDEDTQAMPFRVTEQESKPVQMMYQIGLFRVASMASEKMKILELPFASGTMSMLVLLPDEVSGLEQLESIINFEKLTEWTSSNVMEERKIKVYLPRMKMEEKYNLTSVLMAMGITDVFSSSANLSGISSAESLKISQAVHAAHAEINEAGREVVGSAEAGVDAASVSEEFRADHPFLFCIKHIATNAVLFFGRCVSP

sheep serum albumin = biological target: T13, sheep serum albumin (sheep, UniProt P14639 25-607); assay: ELISA, coated albumin
T13 construct: mature; also called sheep Alb

bovine serum albumin = biological target: T14, bovine serum albumin (bovine, UniProt P02769 25-607); assay: ELISA, coated albumin
T14 construct: mature; also called bovine Alb

human serum albumin [31] = biological target: T11, human serum albumin; assay: ELISA, coated albumin, E. coli supernatant
dog serum albumin [32] = biological target: T15, dog serum albumin (dog, UniProt P49822 25-608); assay: ELISA, coated albumin, E. coli supernatant
T15 construct: mature; also called dog Alb; Canine albumin

horse serum albumin = biological target: T16, horse serum albumin (horse, UniProt P35747 25-607); assay: ELISA, coated albumin, E. coli supernatant
T16 construct: mature; also called horse Alb; Equine albumin

human serum albumin [33] = biological target: T11, human serum albumin; assay: ELISA, E. coli supernatant
dog serum albumin [34] = biological target: T15, dog serum albumin; assay: ELISA, E. coli supernatant
Human albumin [35] = biological target: Human albumin (human, UniProt P02768 25-609); assay: BLI (Octet Red96), biotinylated albumin on SA sensor, SDA as analyte
Horse albumin [36] = biological target: T17, Horse albumin (horse, UniProt P35747 25-607); assay: as above
T17 construct: also called Equine albumin; Equine Alb

Dog albumin [37] = biological target: T18, Dog albumin (dog, UniProt P49822 25-608); assay: BLI (Octet Red96), biotinylated SDA on SA sensor, albumin as analyte
T18 construct: also called Canine albumin; Canine Alb

[38] = biological target: T19, Tetanus neurotoxin (TeNT), authentic tetanus holotoxin (Clostridium tetani, UniProt P04958 2-1315)
[39] = biological target: T19, Tetanus neurotoxin (TeNT), authentic …; remark: listed apart in the source

T7 sequence (P02769 25-607 limits assumed): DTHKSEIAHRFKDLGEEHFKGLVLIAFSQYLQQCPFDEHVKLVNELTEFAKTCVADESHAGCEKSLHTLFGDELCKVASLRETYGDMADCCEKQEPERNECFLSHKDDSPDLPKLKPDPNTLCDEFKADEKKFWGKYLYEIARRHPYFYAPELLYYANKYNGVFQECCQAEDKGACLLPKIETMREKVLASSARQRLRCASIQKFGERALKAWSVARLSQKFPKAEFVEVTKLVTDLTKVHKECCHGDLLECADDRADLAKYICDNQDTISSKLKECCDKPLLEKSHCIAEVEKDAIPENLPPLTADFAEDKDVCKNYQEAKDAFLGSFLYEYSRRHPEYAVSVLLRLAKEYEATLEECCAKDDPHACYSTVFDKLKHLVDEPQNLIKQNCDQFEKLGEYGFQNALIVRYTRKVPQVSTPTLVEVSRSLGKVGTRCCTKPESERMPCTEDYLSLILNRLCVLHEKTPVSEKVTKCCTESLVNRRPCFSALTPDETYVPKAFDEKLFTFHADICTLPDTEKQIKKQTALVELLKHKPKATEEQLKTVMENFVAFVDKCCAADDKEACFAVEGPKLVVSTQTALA
T1 sequence (P07724 25-608 limits assumed): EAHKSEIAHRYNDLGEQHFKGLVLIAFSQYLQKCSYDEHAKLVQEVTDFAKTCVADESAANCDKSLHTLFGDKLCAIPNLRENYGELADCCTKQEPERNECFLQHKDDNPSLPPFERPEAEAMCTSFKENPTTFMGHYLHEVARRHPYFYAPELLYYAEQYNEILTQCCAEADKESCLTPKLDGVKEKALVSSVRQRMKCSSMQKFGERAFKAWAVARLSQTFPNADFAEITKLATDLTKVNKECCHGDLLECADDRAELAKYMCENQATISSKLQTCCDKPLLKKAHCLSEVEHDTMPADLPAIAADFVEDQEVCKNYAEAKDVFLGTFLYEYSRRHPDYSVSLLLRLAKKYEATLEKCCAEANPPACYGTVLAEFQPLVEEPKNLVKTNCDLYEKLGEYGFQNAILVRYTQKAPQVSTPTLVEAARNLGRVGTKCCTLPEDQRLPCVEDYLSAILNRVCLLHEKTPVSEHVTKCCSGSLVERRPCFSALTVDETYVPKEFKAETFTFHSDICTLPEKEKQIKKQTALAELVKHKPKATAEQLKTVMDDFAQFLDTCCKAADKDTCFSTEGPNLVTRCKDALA
T6 sequence (P08835 25-607 limits assumed): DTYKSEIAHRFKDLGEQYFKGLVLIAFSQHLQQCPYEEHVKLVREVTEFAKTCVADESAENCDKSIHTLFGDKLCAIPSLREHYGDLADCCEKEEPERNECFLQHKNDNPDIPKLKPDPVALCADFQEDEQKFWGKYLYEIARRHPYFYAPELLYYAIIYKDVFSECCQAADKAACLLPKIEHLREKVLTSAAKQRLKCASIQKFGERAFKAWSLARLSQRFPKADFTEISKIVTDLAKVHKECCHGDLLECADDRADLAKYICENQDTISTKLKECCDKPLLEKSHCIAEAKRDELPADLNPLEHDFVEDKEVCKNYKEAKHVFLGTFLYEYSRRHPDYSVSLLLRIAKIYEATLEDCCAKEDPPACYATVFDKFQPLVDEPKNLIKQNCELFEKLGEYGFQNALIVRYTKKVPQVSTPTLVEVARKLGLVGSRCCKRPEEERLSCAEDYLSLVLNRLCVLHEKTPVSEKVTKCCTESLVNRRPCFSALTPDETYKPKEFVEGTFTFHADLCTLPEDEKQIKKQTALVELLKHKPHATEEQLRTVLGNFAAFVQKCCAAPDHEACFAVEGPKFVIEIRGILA
T2 sequence (P35747 25-607 limits assumed): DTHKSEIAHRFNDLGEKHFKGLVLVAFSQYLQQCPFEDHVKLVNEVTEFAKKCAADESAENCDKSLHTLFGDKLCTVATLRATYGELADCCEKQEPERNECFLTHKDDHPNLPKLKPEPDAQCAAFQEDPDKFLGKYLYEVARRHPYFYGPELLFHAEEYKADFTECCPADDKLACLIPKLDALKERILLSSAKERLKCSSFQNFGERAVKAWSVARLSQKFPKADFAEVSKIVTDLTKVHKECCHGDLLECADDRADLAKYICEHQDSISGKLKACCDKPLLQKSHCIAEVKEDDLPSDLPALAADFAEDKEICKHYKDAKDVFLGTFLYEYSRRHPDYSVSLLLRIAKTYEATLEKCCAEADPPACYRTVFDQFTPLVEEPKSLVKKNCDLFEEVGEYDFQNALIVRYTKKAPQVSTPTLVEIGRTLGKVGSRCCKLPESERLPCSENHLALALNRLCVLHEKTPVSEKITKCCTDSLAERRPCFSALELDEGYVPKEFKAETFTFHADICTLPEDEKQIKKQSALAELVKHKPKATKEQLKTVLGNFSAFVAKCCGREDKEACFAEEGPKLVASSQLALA
T8 sequence (P49822 25-608 limits assumed): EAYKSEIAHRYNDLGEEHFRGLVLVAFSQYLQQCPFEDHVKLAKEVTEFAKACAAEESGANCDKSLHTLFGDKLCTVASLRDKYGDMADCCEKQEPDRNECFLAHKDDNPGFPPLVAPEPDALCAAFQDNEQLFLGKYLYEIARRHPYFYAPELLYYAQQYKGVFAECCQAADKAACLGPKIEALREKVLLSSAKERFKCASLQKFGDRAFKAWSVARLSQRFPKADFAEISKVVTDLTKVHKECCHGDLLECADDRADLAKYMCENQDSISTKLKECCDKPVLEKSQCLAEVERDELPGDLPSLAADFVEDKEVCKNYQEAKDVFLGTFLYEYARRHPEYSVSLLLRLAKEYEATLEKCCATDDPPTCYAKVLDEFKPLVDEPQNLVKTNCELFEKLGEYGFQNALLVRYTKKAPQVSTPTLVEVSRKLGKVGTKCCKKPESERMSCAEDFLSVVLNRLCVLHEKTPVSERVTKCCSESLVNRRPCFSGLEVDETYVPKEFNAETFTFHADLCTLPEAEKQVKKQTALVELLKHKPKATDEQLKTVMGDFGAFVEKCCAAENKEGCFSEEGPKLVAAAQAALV
T3 sequence (P14639 25-607 limits assumed): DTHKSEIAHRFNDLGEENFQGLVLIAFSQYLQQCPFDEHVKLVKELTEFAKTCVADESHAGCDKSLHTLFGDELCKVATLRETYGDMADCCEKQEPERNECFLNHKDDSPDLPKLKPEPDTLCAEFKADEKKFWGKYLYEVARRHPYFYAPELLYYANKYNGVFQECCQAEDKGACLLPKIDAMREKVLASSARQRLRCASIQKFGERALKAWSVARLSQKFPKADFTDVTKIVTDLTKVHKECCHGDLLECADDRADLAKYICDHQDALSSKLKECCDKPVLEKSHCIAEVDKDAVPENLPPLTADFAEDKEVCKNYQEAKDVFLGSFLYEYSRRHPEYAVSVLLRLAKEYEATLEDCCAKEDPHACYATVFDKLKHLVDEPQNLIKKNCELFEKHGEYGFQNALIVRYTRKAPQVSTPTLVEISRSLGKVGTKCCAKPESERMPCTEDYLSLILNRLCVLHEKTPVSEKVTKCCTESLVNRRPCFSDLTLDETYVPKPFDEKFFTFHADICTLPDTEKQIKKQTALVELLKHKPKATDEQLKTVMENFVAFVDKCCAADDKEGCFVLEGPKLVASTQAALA
T10 sequence (P04958 2-457 limits assumed, chain 1 of 2): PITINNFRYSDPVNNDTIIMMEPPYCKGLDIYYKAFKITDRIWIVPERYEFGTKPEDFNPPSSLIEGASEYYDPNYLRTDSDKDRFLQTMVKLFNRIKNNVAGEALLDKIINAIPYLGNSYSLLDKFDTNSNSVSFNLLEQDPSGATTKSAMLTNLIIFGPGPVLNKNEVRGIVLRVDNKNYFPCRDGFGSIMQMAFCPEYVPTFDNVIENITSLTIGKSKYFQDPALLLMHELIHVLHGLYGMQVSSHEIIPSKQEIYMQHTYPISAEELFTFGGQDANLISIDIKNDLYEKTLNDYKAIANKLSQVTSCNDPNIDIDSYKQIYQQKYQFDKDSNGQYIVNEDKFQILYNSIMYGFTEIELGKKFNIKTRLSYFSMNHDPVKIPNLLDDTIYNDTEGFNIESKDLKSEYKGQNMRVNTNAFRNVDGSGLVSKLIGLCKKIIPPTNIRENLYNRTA
T10 sequence (P04958 458-1315 limits assumed, chain 2 of 2): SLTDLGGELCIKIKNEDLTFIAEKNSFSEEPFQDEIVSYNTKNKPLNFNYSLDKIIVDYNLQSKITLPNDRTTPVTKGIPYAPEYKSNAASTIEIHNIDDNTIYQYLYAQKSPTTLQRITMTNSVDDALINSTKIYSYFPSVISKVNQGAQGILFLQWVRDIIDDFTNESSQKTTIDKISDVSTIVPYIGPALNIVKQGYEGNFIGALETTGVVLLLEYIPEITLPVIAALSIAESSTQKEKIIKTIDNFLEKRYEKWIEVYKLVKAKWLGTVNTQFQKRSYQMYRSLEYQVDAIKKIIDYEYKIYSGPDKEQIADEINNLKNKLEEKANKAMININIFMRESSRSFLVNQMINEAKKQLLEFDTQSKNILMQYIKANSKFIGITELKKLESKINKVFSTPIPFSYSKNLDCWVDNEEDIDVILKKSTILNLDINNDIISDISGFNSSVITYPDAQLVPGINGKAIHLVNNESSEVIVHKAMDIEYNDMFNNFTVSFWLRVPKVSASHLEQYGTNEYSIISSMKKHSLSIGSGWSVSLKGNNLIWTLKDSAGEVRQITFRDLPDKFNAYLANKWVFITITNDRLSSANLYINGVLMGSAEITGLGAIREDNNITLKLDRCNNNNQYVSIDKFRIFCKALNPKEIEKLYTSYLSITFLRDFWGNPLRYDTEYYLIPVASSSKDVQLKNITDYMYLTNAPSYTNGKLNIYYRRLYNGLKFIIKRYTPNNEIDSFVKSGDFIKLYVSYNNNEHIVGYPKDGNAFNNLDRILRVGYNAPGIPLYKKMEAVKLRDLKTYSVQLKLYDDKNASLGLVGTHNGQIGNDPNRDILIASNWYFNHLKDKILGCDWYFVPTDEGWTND
T15 sequence (P49822 25-608): as the sequence (P49822 25-608 limits assumed) above
T14 sequence (P02769 25-607): as the sequence (P02769 25-607 limits assumed) above
T16 sequence (P35747 25-607): as the sequence (P35747 25-607 limits assumed) above
horse albumin (horse Alb), sequence (P35747 25-607 limits assumed): as above
T17 sequence (P35747 25-607 limits assumed): as above

B1: SVT06L (VHH)
VHH: QVQLQESGGGSVQAGGSLRLSCTASELSYDDYTIAWFRRAAGEGRVEDGEGVASITKSYDRAYDNKINYGHSVKGRFTISRDNAKNTVYLQMTDLLPSDTAVYYCALDITPPGGVGASLTEGFLFDYWGQGTQVTVSS
SDA Effective Concentration resulting in A450 nm = 0.2 (mouse albumin [1]): > 1000 ng/mL | maximal absorbance value at 450 nm (mouse albumin [1]): 0.073 A450 | SDA Effective Concentration resulting in A450 nm = 0.2 (horse albumin [2]): > 1000 ng/mL | maximal absorbance value at 450 nm (horse albumin [2]): 0.056 A450 | SDA Effective Concentration resulting in A450 nm = 0.2 (sheep albumin [3]): > 1000 ng/mL | maximal absorbance value at 450 nm (sheep albumin [3]): 0.06 A450 | SDA Effective Concentration resulting in A450 nm = 0.2 (human albumin [4]): > 1000 ng/mL | maximal absorbance value at 450 nm (human albumin [4]): 0.065 A450 | SDA Effective Concentration resulting in A450 nm = 0.2 (chicken ovalbumin [5]): > 1000 ng/mL | maximal absorbance value at 450 nm (chicken ovalbumin [5]): 0.057 A450 | SDA Effective Concentration resulting in A450 nm = 0.2 (swine albumin [6]): > 1000 ng/mL | maximal absorbance value at 450 nm (swine albumin [6]): 0.08 A450 | SDA Effective Concentration resulting in A450 nm = 0.2 (bovine albumin [7]): > 1000 ng/mL | maximal absorbance value at 450 nm (bovine albumin [7]): 0.051 A450 | SDA Effective Concentration resulting in A450 nm = 0.2 (dog albumin [8]): > 1000 ng/mL | maximal absorbance value at 450 nm (dog albumin [8]): 0.053 A450 | maximal absorbance value at 450 nm (cat albumin [9]): 0.099 A450 | binding result (mouse albumin [10]): no binding (tested: 1000 ng/ml) | binding result (horse albumin [11]): no binding (tested: 1000 ng/ml) | binding result (sheep albumin [12]): no binding (tested: 1000 ng/ml) | binding result (human albumin [13]): no binding (tested: 1000 ng/ml) | binding result (chicken ovalbumin [14]): no binding (tested: 1000 ng/ml) | binding result (swine albumin [15]): no binding (tested: 1000 ng/ml) | binding result (bovine albumin [16]): no binding (tested: 1000 ng/ml) | binding result (dog albumin [17]): no binding (tested: 1000 ng/ml) | binding result (cat albumin [18]): no binding (tested: 1000 ng/ml)

B2: SVT16L (VHH)
VHH: QVQLQESGGGSVQAGDSLRLSCAASGRTISNYAMGWFRQAPGKQREFVAAISRSDNTYYTDSVKGRFTISRDNAKNTLYLQMNSLKPEETAVYYCAADPNLMYESKWKYRALEAWGQGTLVTVSS
maximal absorbance value [19]: 1.56 A450 | Effective SDA Concentration at A450 0.15 [20]: 1.4 ng/mL | Effective SDA Concentration at A450 0.15 [21]: 5 ng/mL | binding result [22]: no binding (tested: 100 nM) | Effective SDA Concentration at A450 0.3 [23]: > 1000 ng/mL | maximal absorbance value [24]: 0.18 A450 | maximal absorbance value [25]: 0.44 A450 | Kd [26]: 339 pM | koff [26]: 0.000311 s⁻¹ | kon [26]: 916000 M⁻¹ s⁻¹ | minimal absorbance value (GT1b-TeNT inhibition) [27]: 0.18 A450 | Effective SDA Concentration at A450 0.56 [28]: 21 ng/mL

B3: SVA06L (VHH)
VHH: QVQLQESGGRLVQAEDSLRLSCAASGRTFVSYDMGWFRQAPGKEREFVAAINWRGYTTDYVDSVKGRFFISRDIAKSTVYLQMNNLKPEDTAVYYCAARQMSGSSRYSPPGRVGYDFWGQGTQVTVSS
notes: yeast-produced
binding result (human serum albumin [29]): no binding (tested: 1 µg/ml) | binding result (chicken ovalbumin [30]): no binding (tested: 1 µg/ml) | binding result (sheep serum albumin): no binding (tested: 1 µg/ml) | binding result (bovine serum albumin): no binding (tested: 1 µg/ml)

B4: SVA07 (VHH, not shown: large carriers)
VHH: QVQLQQSGGGLVQAGDSLRLSCAASGRAFNYYTMGWFRQAPGKEREFVAKIYWDGGSTIYADSVKGRFTISIDNAKNTVYLQMNSLKPEDTAVYYCAADPSFYPFRPKYWGQGTQVTVSS
absorbance at 450 nm (human serum albumin [31]): 0.062 A450 | absorbance at 450 nm (dog serum albumin [32]): 0.059 A450 | absorbance at 450 nm (horse serum albumin): 1.46 A450 | binding result (human serum albumin [33]): no binding | binding result (dog serum albumin [34]): no binding

B5: SVT15-3FW4M-GS3-SVT06-GS2-SVG13M5-H6 (bispecific antibody)
chain: QVQLQESGGGLVQTGGSLRLSCRASGRAFANYHFGWFRQAPGKDREFVASISWKGGSTYYANFALGRFTSSVDRAESSVYLQMSGLTPEDTATYYCAAHDGGDWNYHTGMDYWGQGTQVTVSSGGGGSGGGGSGGGGSQVQLQESGGGSVQAGGSLRLSCTASELSYDDYTIAWFRRAAGEGRVEDGEGVASITKSYDRAYDNKINYGHSVKGRFTISRDNAKNTVYLQMTDLLPSDTAVYYCALDITPPGGVGASLTEGFLFDYWGQGTQVTVSSGGGGSGGGSEVQLVESGGGLVQPGGSLRLSCEASGFTFDDYGMSWVRQAPGKGLEWVSSLTPNGGSTYYADSVKGRFTISRDNAKNTLYLQMNSLKPEDTALYYCAKNSYYGAMDYRGQGTQVTVSSHHHHHH
binding result (Human albumin [35]): no binding (tested: 100 nM) | binding result (Horse albumin [36]): no binding (tested: 100 nM) | binding result (Dog albumin [37]): no binding (tested: 16-500 nM) | Kd [38]: < 0.41 pM | koff [38]: < 1.99e-07 s⁻¹ | kon [38]: 484000 M⁻¹ s⁻¹ | Kd [39]: 22.9 pM | koff [39]: 2.73e-05 s⁻¹ | kon [39]: 1.19e+06 M⁻¹ s⁻¹
